How the values were obtained:
C.PvuII [1] = assay: competition
C.PvuII [2] = assay: EMSA

Row | Substance | binding signal (% loss of shifted WWWW band) (C.PvuII [1]) | K half (C.PvuII [2])
1 | WWRR C-box 126-mer (OL intact) | 95 | 
2 | WWWW C-box 126-mer (symmetrized, spacer TGTA) |  | 200 nM
